The supplement of paper PMC10567573

B1: PDZK1 (parent)
chain: QKEQGLSDNILSPVMNGGVQTWTQ
B2: IQUB (parent)
chain: EADYEDDSKIAFLMQLQDIQYLTE

Variants of: B1
Experiment: protein stability index of a GFP-peptide fusion (GPS, HEK-293T) (PSI 1-6); higher = more stable
Settings: c terminus: a fixed tail appended
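Note: lentivirally expressed fusions sorted by FACS into six bins by GFP to DsRed ratio, PSI derived from sequencing read proportions per bin multiplied by bin number.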

Going from QKEQGLSDNILSPVMNGGVQTQTQ to QKEQGLSDNILSPVMNGGVQTRTQ, the protein stability index falls from 5.24 to 5.04.

Going from QKEQGLSDNILSPVMNGGVQTSTQ to QKEQGLSDNILSPVMNGGVQTYTQ, the protein stability index falls from 5.05 to 4.09.

Going from QKEQGLSDNILSPVMNGGVQTWDQ to QKEQGLSDNILSPVMNGGVQTWFQ, the protein stability index falls from 3.67 to 3.02.

Compared with QKEQGLSDNILSPVMNGGVQTWGQ, QKEQGLSDNILSPVMNGGVQTWIQ is higher in protein stability index: 3.5 for the first, 4 for the second.

Compared with QKEQGLSDNILSPVMNGGVQTWKQ, QKEQGLSDNILSPVMNGGVQTWMQ is higher in protein stability index: 3.39 for the first, 3.74 for the second.

First: QKEQGLSDNILSPVMNGGVQTWNQ
Second: QKEQGLSDNILSPVMNGGVQTWPQ
The protein stability index of the first is lower: 3.12 for the first, 4.25 for the second.

First: QKEQGLSDNILSPVMNGGVQTWQQ
Second: QKEQGLSDNILSPVMNGGVQTWRQ
The protein stability index of the first is lower: 2.16 for the first, 3.42 for the second.

Going from QKEQGLSDNILSPVMNGGVQTWSQ to QKEQGLSDNILSPVMNGGVQTWVQ, the protein stability index falls from 3.43 to 1.56.

Compared with QKEQGLSDNILSPVMNGGVQTWWQ, QKEQGLSDNILSPVMNGGVQTWYQ is higher in protein stability index: 2.96 for the first, 3.05 for the second.

First: QKEQGLSDNILSPVMNGGVQTWTC
Second: QKEQGLSDNILSPVMNGGVQTWTD
The protein stability index of the first is lower: 2.14 for the first, 3.13 for the second.

First: QKEQGLSDNILSPVMNGGVQTWTE
Second: QKEQGLSDNILSPVMNGGVQTWTF
The protein stability index of the first is higher: 3.43 for the first, 1.78 for the second.

Compared with QKEQGLSDNILSPVMNGGVQTWTG, QKEQGLSDNILSPVMNGGVQTWTH is lower in protein stability index: 3.58 for the first, 2.84 for the second.

First: QKEQGLSDNILSPVMNGGVQTWTI
Second: QKEQGLSDNILSPVMNGGVQTWTK
The protein stability index of the first is lower: 2.36 for the first, 3.55 for the second.

First: QKEQGLSDNILSPVMNGGVQTWTM
Second: QKEQGLSDNILSPVMNGGVQTWTP
The protein stability index of the first is lower: 2.26 for the first, 4.43 for the second.

Going from QKEQGLSDNILSPVMNGGVQTWTR to QKEQGLSDNILSPVMNGGVQTWTS, the protein stability index falls from 3.35 to 1.68.

Compared with QKEQGLSDNILSPVMNGGVQTWTT, QKEQGLSDNILSPVMNGGVQTWTV is lower in protein stability index: 3.66 for the first, 2.72 for the second.

Variants of: B2
Experiment: as above
Settings: c terminus: a fixed tail appended

Going from AADYEDDSKIAFLMQLQDIQYLTE to CADYEDDSKIAFLMQLQDIQYLTE, the protein stability index falls from 2.95 to 2.61.

First: DADYEDDSKIAFLMQLQDIQYLTE
Second: FADYEDDSKIAFLMQLQDIQYLTE
The protein stability index of the first is higher: 3.56 for the first, 1.99 for the second.

Going from GADYEDDSKIAFLMQLQDIQYLTE to HADYEDDSKIAFLMQLQDIQYLTE, the protein stability index rises from 2.79 to 3.29.

Going from IADYEDDSKIAFLMQLQDIQYLTE to KADYEDDSKIAFLMQLQDIQYLTE, the protein stability index rises from 2.09 to 2.27.

First: LADYEDDSKIAFLMQLQDIQYLTE
Second: MADYEDDSKIAFLMQLQDIQYLTE
The protein stability index of the first is higher: 2.75 for the first, 2.38 for the second.

Going from NADYEDDSKIAFLMQLQDIQYLTE to PADYEDDSKIAFLMQLQDIQYLTE, the protein stability index falls from 2.85 to 2.6.

Compared with QADYEDDSKIAFLMQLQDIQYLTE, RADYEDDSKIAFLMQLQDIQYLTE is lower in protein stability index: 2.76 for the first, 2.44 for the second.

Compared with SADYEDDSKIAFLMQLQDIQYLTE, TADYEDDSKIAFLMQLQDIQYLTE is lower in protein stability index: 2.65 for the first, 2.47 for the second.

First: VADYEDDSKIAFLMQLQDIQYLTE
Second: WADYEDDSKIAFLMQLQDIQYLTE
The protein stability index of the first is lower: 1.74 for the first, 2.17 for the second.

Compared with YADYEDDSKIAFLMQLQDIQYLTE, ECDYEDDSKIAFLMQLQDIQYLTE is higher in protein stability index: 2.23 for the first, 2.75 for the second.

Going from EDDYEDDSKIAFLMQLQDIQYLTE to EEDYEDDSKIAFLMQLQDIQYLTE, the protein stability index rises from 3.53 to 3.63.

First: EFDYEDDSKIAFLMQLQDIQYLTE
Second: EGDYEDDSKIAFLMQLQDIQYLTE
The protein stability index of the first is lower: 2.58 for the first, 2.71 for the second.

Compared with EHDYEDDSKIAFLMQLQDIQYLTE, EIDYEDDSKIAFLMQLQDIQYLTE is higher in protein stability index: 2.51 for the first, 2.99 for the second.

Going from EKDYEDDSKIAFLMQLQDIQYLTE to ELDYEDDSKIAFLMQLQDIQYLTE, the protein stability index rises from 2.89 to 3.46.

Compared with EMDYEDDSKIAFLMQLQDIQYLTE, ENDYEDDSKIAFLMQLQDIQYLTE is higher in protein stability index: 2.44 for the first, 3.41 for the second.

Going from EPDYEDDSKIAFLMQLQDIQYLTE to EQDYEDDSKIAFLMQLQDIQYLTE, the protein stability index falls from 3.73 to 2.36.

Going from ERDYEDDSKIAFLMQLQDIQYLTE to ESDYEDDSKIAFLMQLQDIQYLTE, the protein stability index rises from 2.44 to 2.89.

Compared with ETDYEDDSKIAFLMQLQDIQYLTE, EVDYEDDSKIAFLMQLQDIQYLTE is higher in protein stability index: 2.93 for the first, 2.99 for the second.

Going from EWDYEDDSKIAFLMQLQDIQYLTE to EYDYEDDSKIAFLMQLQDIQYLTE, the protein stability index falls from 2.17 to 2.08.

First: EAAYEDDSKIAFLMQLQDIQYLTE
Second: EACYEDDSKIAFLMQLQDIQYLTE
The protein stability index of the first is higher: 2.1 for the first, 1.69 for the second.

Going from EAEYEDDSKIAFLMQLQDIQYLTE to EAFYEDDSKIAFLMQLQDIQYLTE, the protein stability index falls from 2.88 to 1.62.

First: EAGYEDDSKIAFLMQLQDIQYLTE
Second: EAHYEDDSKIAFLMQLQDIQYLTE
The protein stability index of the first is higher: 2.77 for the first, 2.17 for the second.

Going from EAIYEDDSKIAFLMQLQDIQYLTE to EAKYEDDSKIAFLMQLQDIQYLTE, the protein stability index rises from 1.97 to 2.58.

Going from EALYEDDSKIAFLMQLQDIQYLTE to EAMYEDDSKIAFLMQLQDIQYLTE, the protein stability index rises from 2.02 to 2.03.

Compared with EANYEDDSKIAFLMQLQDIQYLTE, EAPYEDDSKIAFLMQLQDIQYLTE is lower in protein stability index: 2.87 for the first, 1.98 for the second.

Compared with EAQYEDDSKIAFLMQLQDIQYLTE, EARYEDDSKIAFLMQLQDIQYLTE is higher in protein stability index: 2.23 for the first, 2.34 for the second.

Compared with EASYEDDSKIAFLMQLQDIQYLTE, EATYEDDSKIAFLMQLQDIQYLTE is lower in protein stability index: 2.51 for the first, 2.48 for the second.

Going from EAVYEDDSKIAFLMQLQDIQYLTE to EAWYEDDSKIAFLMQLQDIQYLTE, the protein stability index rises from 2.51 to 2.93.

First: EAYYEDDSKIAFLMQLQDIQYLTE
Second: EADAEDDSKIAFLMQLQDIQYLTE
The protein stability index of the first is lower: 1.83 for the first, 3.76 for the second.

Compared with EADCEDDSKIAFLMQLQDIQYLTE, EADDEDDSKIAFLMQLQDIQYLTE is higher in protein stability index: 3.27 for the first, 4.24 for the second.

Compared with EADEEDDSKIAFLMQLQDIQYLTE, EADFEDDSKIAFLMQLQDIQYLTE is lower in protein stability index: 4.09 for the first, 3.16 for the second.
